# T1: HLA-DR13 (DRB1*1301), purified (human)
# T1 chain 1: not shown
# T1 chain 2: not shown
# Target: T1, HLA-DR13 (DRB1*1301), purified (human)
# Test: competition on purified HLA-DR (DRB1*1301) against biotinylated B1 21-36 (200 nM, pH 4.5); fluorescence assay
binder,measurement,value
"TERVRLVTRHIYNREE (modifications not checked) [B1 21-36 (…), unlabeled reference peptide]",IC50,390 nM

# From patent publication US20040077045A1
